From article PMC2724296 (Nucleic Acids Research, 2009)

T1: ST1710 (Sulfurisphaera tokodaii, UniProt Q96ZY1)
T1 sequence (Q96ZY1 1-146): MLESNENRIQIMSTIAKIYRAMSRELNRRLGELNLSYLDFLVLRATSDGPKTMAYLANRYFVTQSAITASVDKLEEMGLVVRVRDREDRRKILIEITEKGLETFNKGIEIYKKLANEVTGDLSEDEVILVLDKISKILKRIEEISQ

T2: ST1710 K91A (Sulfolobus tokodaii strain 7, UniProt Q96ZY1 1-146, K91A)
T2 sequence: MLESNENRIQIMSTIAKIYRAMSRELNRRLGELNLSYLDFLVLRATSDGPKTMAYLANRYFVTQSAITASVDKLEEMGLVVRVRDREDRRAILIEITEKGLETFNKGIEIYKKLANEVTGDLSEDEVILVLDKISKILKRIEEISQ

T3: ST1710 R90A (Sulfolobus tokodaii strain 7, UniProt Q96ZY1 1-146, R90A)
T3 sequence: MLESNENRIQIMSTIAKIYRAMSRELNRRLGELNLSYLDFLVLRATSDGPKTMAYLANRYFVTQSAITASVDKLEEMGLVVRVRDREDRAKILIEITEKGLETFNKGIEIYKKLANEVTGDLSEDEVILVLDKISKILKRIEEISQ

T4: ST1710 R89A (Sulfolobus tokodaii strain 7, UniProt Q96ZY1 1-146, R89A)
T4 sequence: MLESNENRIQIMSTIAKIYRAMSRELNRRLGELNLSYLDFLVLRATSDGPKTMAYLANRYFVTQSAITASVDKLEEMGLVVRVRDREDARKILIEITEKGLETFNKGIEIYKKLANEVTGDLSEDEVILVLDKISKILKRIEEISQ

T5: ST1710 (Sulfolobus tokodaii strain 7, UniProt Q96ZY1 1-146)
T5 sequence: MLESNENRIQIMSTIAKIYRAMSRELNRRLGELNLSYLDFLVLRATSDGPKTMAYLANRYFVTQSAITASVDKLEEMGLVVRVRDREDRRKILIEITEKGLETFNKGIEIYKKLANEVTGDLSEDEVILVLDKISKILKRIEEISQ


Key:
ST1710 [1] = target: T1, ST1710; test: differential scanning calorimetry; format: binding
ST1710 K91A = target: T2, ST1710 K91A; test: EMSA
ST1710 R90A = target: T3, ST1710 R90A; test: EMSA
ST1710 R89A = target: T4, ST1710 R89A; test: EMSA
ST1710 [2] = target: T5, ST1710; test: crystal structure

Molecule | Kd (ST1710 [1]) [mM] | binding result (ST1710 K91A) | binding result (ST1710 R90A) | binding result (ST1710 R89A) | binding result (ST1710 [2])
O=C(O)c1ccccc1O [sodium salicylate] | 20 ± 4.9 | – | – | – | –
30-mer putative st1710 promoter duplex (dsDNA) DNA 1: AATAATGTCATTGTTAACAATAGCAAAAAT DNA 2: ATTTTTGCTATTGTTAACAATGACATTATT | – | no binding | no binding | no binding | binds
